Assays:
[1] = target: Asp121 (UniProt position 121, AYRYVDWLLTV); assay: UV-vis; conditions: 3-mix buffer (starting at pH ca. 12, adjusted downward with HCl); retinal-bound pigment, unphotolysed state; light or dark adaptation not stated
[2] = target: T1, Gloeobacter rhodopsin (GR, Gloeorhodopsin) (Gloeobacter violaceus, UniProt Q7NP59); assay: UV/VIS absorption of purified pigment; format: binding; conditions: covalent (protonated Schiff base, Lys257); 50 mM Tris pH 7, 150 mM NaCl, 0.02% DDM
T1 construct: gene gll0198
T1 sequence (Q7NP59 entry or part of it): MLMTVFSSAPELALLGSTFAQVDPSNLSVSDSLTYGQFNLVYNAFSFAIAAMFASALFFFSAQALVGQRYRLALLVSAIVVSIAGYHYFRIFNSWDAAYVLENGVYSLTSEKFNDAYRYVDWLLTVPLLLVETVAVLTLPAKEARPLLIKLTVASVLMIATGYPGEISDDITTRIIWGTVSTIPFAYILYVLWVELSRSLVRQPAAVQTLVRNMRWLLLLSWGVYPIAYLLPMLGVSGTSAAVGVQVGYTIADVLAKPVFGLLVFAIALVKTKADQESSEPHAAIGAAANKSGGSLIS

“Gloeobacter rhodopsin (GR, Gloeorhodopsin) (Gloeobacter violaceus PCC 7421)” was tested, and the pKa [1] was 5.9.

In the case of `CC1=C(/C=C/C(C)=C/C=C/C(C)=C/C=O)C(C)(C)CCC1` [all-trans retinal], the “UV/VIS absorption of purified pigment” value [2] is reported as “expressed in Escherichia coli and bound all-trans retinal to form a pigment”.

— paper PMC4210194, “Cyanobacterial Light-Driven Proton Pump, Gloeobacter Rhodopsin: Complementarity between Rhodopsin-Based Energy Production and Photosynthesis” (PLoS ONE, 2014)
